Measurements from the DeepSol protein solubility set.

test: soluble on expression in E. coli; label from the status in PepcDB or PDB records

Question: With “MQEHFHFTTDPAKLQKQYAAIFCFVSAQLSLIQMYLHRRNRHLVKQEDEVVMAVHLLGKLLGFSSERAWHRFVTGNLFTNGSFLERSRYNRRCRALGFAVKWIRHELAKRGQHHAYAVVDSLPLPLCHPARMQRVKRFRGIADMGYCASKKQWYYGFKLHLQVTHQGLAMGYVVTEASCHDVKAAETVMTQIPHPYNFGDKGYISRALREKLYEEHQAAFWTPSRHNQKHGPSKAWEEWIRKKRKVIETVFSILVDQYRITDIRANSIAGFEVALDGILVAYSLVTLGLVER” as the sequence, how does the “soluble on expression in E. coli” value read?
Answer: The value was “not soluble”.

Question: Which “soluble on expression in E. coli” value does the source give for “ARAEQFTTSLLSIISNNNLLAKATSESIMGAAMKAAVLNLPIEPSLGFAYVVPYNRNYKDGNRWITVNEAQFQIGYRGLIQLAQRSGQVRNIEHGIIYEEEFLGYDKIRGQLKLTGDYVDSGVVKGYFASLELISGFYKMIFWPKEKVYEHAKKYSKTFDKKTGDFKPGTPWATEFDPMAIKTLLKELLSKYAPLSVEMQDALEADNADSTIVIPKDVTPQETNSLDDLIGTQ” here?
Answer: Its value is “not soluble”.

Question: For “MEGFVLAGTSSGVGKTVATLATLTALEDAGYQPQPAKAGPDFIDPSHHEALVDTPSRTLDPWLAGEDGMRRTYWRGTGDICVVEGVMGLYDGTKTSTAAVAEGLDLPVVLVVDAKAGMESVAATALGFAQYADRIGVDIEVAGILAQRAHGGRHADGIRDALPEDLTYFGRIPPMSDLEIPDRHLGLHMGSEAGLDRDALSTAAETIDIERLVETARAPPEVATTERNTGDSPADRRVAVAQDSAFCFIYPSVLERLRSEASVEPFSPVAGDSVPDADAIYLPGGYPELHGESLETGGTLDEIAVRAADGVPVYGECGGLMALSESLTTTDGDTYEMAGVLPADIEMQDRYQALDHVELEARADTVAATSGAHRRGHEFHYSAATLGSDASFAFDMVRGDGIDGEHDGLTEYSTIGTYCHCHGESGAFDRLLAVPSKDILEHHHHHH”, which “soluble on expression in E. coli” value is on record?
Answer: Its value is “not soluble”.

Question: For “MSLTRAAVNPKPFVVPELKQWTGKDGNFTPGKDTRIVCTSQNPELLRIARMFADDYQQMFGQTLSVAQGKATSGDFVLSLSADKKLGEEGYAIKITDRVAISAPTPTGLYWSTRTLLQLAEQNQERSLPQGTIRDYPDYPLRGFMIDCGRKFIPMAYLQDLVKIMAYYKMNTLQVHLNDNGFKQYFEHNWDKTYAAFRLESETYPGLTARDGSYSKKEFIDFQKQAASNFVEIIPEIDVPAHSLALTHYKPEIGSKEYGMDHLDLFKPETYEFVDALFKEYLEGDNPVFVGKRVHIGTDEYSNAKKDVVEKFRAFTDHYIRFVEGFGKQAVVWGALSHAKGDTPVKSENVVMNAWYNGYADPATMIKDGYQLISIPDGLVYIVPKAGYYYDYLNEPYLYKEWTPAHIGKAVFDEKHPSILGGMFAIWNDHVGNGISVKDIHHRIFSPLQTLSVKMWTGAQTGIPYETFNEKRALLSEAPGVNQLARIGKKPELVYERSTVAPGSTSDYPEIGYNYTVSFDITGAKESEGTELFRSPNAVFYLSDPIRGEGHHHHHH”, which “soluble on expression in E. coli” value is on record?
Answer: The value was “soluble”.

Question: With “MNQEDNTGGGGIFGLFKWTKDALFGTDISPSMKYKDQEERRDRSRYAQDDTNFSMKFGNDSNRRSTNLSRSNSWSGLDSTLHRKYELLPEYNENGFNSIVNGDHHSKERIRSLRSPAPIVPREPLRNEPTDTFGHRLHTKRRTINELSNSQIPFIPPQEDDPLLSKLFNKDGVNEVRRSPYKLSVKDIPGKFPSPLTKRDEIDNYYVRDEDACHKNREYKKAYFDLFAQMDLNSRDLEDLCEDVREQREQFHRNEQTYKQAYEEMRAELVNELKKSKTLFENYYSLGQKYKSLKKVLDQTISHEAELATSRERLYQEEDLKNFEIQTLKQRLSDLELKYTNLQIEKDMQRDNYESEIHDLLLQLSLRNNERKDTSAGSNIFSTGQ” as the sequence, how does the “soluble on expression in E. coli” value read?
Answer: The value was “soluble”.

Question: For “MSLSQIVAEVDGYKVTKEELDTLFHVFWKRITHLSSAKPTQEDKRIFLIDYVADLLILKEAKKMGIEVSEKEINDFIRKYVGRKIKEKSVINAVKAEILVEKLVDKLMKEQELNPSEDILRAYYEFYKREFYRPSSVKLLGIYVKSKKEAERISQILKQGEVPSTEDVKVSKPLWYSIPTLPKYIRRNFRTLSVGEVSKPIKINDGYLVFKILDKKPAGFIPFERAKSLVKKMYLKEKRKEVFKKWLSEVLKKYQVRSTGKEGHHHHHH”, which “soluble on expression in E. coli” value is on record?
Answer: Its value is “not soluble”.

Question: Which “soluble on expression in E. coli” value does the source give for “MGSDKIHHHHHHMLPLVKLIRGQDNTIVEADLVELWQKHVDDYANKWKEQLKLHGQSDKFWDWEFKLEFIINRQANREGFAIEYEDETQGLMLIETQMHGSRLVEGKRLVYIDGIATAPWNRAYIQRPPKLKGVGTAFLAFARTRSLELGYEGRVGLHSLPGVEEFYDNQGMIDVGEDEDYDDLVYFEYGVFRSPV” here?
Answer: Its value is “not soluble”.

Question: Which “soluble on expression in E. coli” value does the source give for “MGDTMQQRLTQDLTQFLASLPEDDRIKAINEIRMAIHQVSPFREEPVDCVLWVKNSQLMPNDYNPNNVAPPEKKLLQKSIEIDGFTQPIVVTHTDKNAMEIVDGFHRHEIGKGSSSLKLRLKGYLPVTCLEGTRNQRIAATIRHNRARGRHQITAMSEIVRELSQLGWDDNKIGKELGMDSDEVLRLKQINGLQELFADRQYSRAWTVK” here?
Answer: The value was “soluble”.

Question: For “MTIADCDPQISFEKEVYFPGDEVKGRAWVSTTKNLKATSVEITFSGKTITAHNGKKIIKDKKCKKGEETYVEMKHEVWTPEDTENTFPSGDYEWNFSFELPKDCPPSFEGKYGFIRYSVLLHIAVPNGKPINVERAVTVSSMVDLNAVNAHEPAKIHVDNVAEYCHCLPCLPTRGNVIYTLQSPKCGYVAGENVIVSGQIENGTSKPMKIITAKLTRRITYREELKAKANAKKKADGADGFKSKLEEQILETKIERCNVPARSSKDFAFSFDIPAVVSTIRSSRLLAVEYFVTVWGDTGTCNRGGVAALNIIVGNVPLFLGSSSLPPRKFVDGEDAQSWTVDMKPVFTYQVPYYGH”, which “soluble on expression in E. coli” value is on record?
Answer: The value was “not soluble”.

Question: For “MAHHHHHHMVDDILKCIHNEFKYVLISCDINNEIKELTFKGSEEKFQNTLGSYFRRIIFDEKGKDELKESIKEKLKTNDKNDEDKEKVNTISPDIINNAIESSQTYQIIPLTIPNEKNDFLGINCYIDDIGRIKKLPYNSRASRICSTEIYGDAFLSKTYDNEDFKRCDFTISEYDEFLKNPPKSENRWDQAQAMQNLLKQMKGQNDAGVNDEAPTEKVNACEHCYKEQNLKRCGRCKKVYYCSVECQKSDYVFHKRICS”, which “soluble on expression in E. coli” value is on record?
Answer: The value was “soluble”.

Question: With “MSLAKVLYITAHPFNELVSNSMAAGKAFIETYQQQHPDDEVKHIDLFETYIPVIDKDVLTGWGKMSNGETLTDDEQMKVSRLSDILEEFLSADKYVFVTPMWNLSFPPVVKAYIDAISIAGKTFKYSAEGPQGLLTDKKVLHIQSRGGYYTEGPAADFEMGDRYLRTIMTFLGVPSYETIIIEGHNAEPHKTEEIKATSINNAEKLATTFEGGSHHHHHH” as the sequence, how does the “soluble on expression in E. coli” value read?
Answer: The value was “soluble”.

Question: With “MGSDKIHHHHHHMAGTHLFHGCQAAPLLPESTPFYCTRTIFFKPAFYCVEGSGVKTNPMKINAGTPDSVNQQVIVIGAGVIGLANAVTLARRGFKVTVIDKEGVAAGASFGNAGHFATEQVFPLADPSLLPKLPKMLLDPLGPFRIRPAYFHRALPWFVRFIVNMMPARRQHNGNAIKALNARSMAATKELLTFCGRADLLVENGSLLVFETQDPRVMEQELALYNDAGIAVRLLSGDEARALEPDLSDAISGALWFTEVGHTPNPRAICEALADTLKALGGRIEIDSVCSLQGGNTPSVTTETGKVTKADKLLLCAGAWSRPLALKLGHRVPLETERGYHLMMPQHSGLKRPVASYERKFIITPMEDGTRLAGTVEFGGLNAPMSNARADCLLPHARVLLPKVFATARVSEGKRWMGFRPSLPDSLPVLGESQTPGVYFAFGHQHLGLTWAASSAELLGQLICGETPSIDLSPYCVKRFD” as the sequence, how does the “soluble on expression in E. coli” value read?
Answer: The value was “not soluble”.

Question: With “MLLSVIITAQGRKGYVMQAVRSVLSQNIPKEDFEIIVSKDFKDDVIDEFLDGRAIVLNENHIRSGSRVASAVLQSSGKILVFLDDDDLFYPGKLREVKIVFSEMGVDYFKNSVKPVAESGDTVSYYQPAIKSDIFVKEPNEQDIRKLLKLRAGFNSSSISLKKDILVGYLDVLSKINLAVDSFYFFLYMSHSRPIYYSKKTLSLYRVLSKSTSRDVRNINAYAEFKSKFYELYSRDFETISEMASDGPCSKLAKTEFHLQMAYKWIFNTYRKEERPRMLHTLASSIYSHDPFIALPWPSFMKKIVQRREYFREKKLLSENTELEHHHHHH” as the sequence, how does the “soluble on expression in E. coli” value read?
Answer: The value was “not soluble”.

Question: With “MKYFNVGKIVNTQGLRGEVRVLSVTDFADERFKKGSQLALFDKKDHFAMTVEIASHRKHKNFDIVKFKGLYHINDVEKYRDFTLKVTEDHLADLEDGEFYYHEIIGLDVYENDILIGQVKEILQPGANDVWVVKRKGKKDLLLPYIPSVILKVDVPNGRIDVTVLEGLDDENLEHHHHHH” as the sequence, how does the “soluble on expression in E. coli” value read?
Answer: Its value is “soluble”.

Question: For “IPLKSIEVPFEGELLPGYAIISEDKAQDTLIVVGGGDTSREDLFYMLGYSGWEHDYNVLMVDLPGQGKNPNQGLHFEVDARAAISAILDWYQAPTEKIAIAGFSGGGYFTAQAVEKDKRIKAWIASTPIYDVAEVFRISFSTALKAPKTILKWGSKLVTSVNKVAEVNLNKYAWQFGQVDFITSVNEVLEQAQIVDYNKIDVPSLFLVGAGEDSELMRQSQVLYDNFKQRGIDVTLRKFSSESGADAHCQVNNFRLMHYQVFEWLNHIFKKKD”, which “soluble on expression in E. coli” value is on record?
Answer: Its value is “not soluble”.

Question: For “MCRALQEQREASAAIAREILGDIKLNVTDGEFAVSIAQQEALESYVDLLEKQEQELIAELHRTVLRLSAKIAATRHLRNLAIREAGKQQGMRMAEDTTERGERQHEEA”, which “soluble on expression in E. coli” value is on record?
Answer: Its value is “not soluble”.

Question: Which “soluble on expression in E. coli” value does the source give for “MSRVCQVTGKRVQTGNNVSHANNKTRRRFLPNLHKRRFWVASENRWVKLRVSTCAVRTIDKNGIDAVLAELRASGEKVLEHHHHHH” here?
Answer: The value was “not soluble”.

Question: For “MGHHHHHHSHEWGTVQLRGSWRVGQTAGGSRNFASYPTNPCFPFSVPEGPGPRCVRITLHQHCRPSDTEFHPIGFHIFQVPEGGRSQDAPPLLLQEPLLSCVPHRYAQEVSRLCLLPAGTYKVVPSTYLPDTEGAFTVTIATRIDRPSIHSQEMLGQFLQEVSVMAVMKT”, which “soluble on expression in E. coli” value is on record?
Answer: Its value is “not soluble”.

Question: For “TPDTLELSLDKPAYRPGETAQLRIVPRAPGKALVTVLSNRVIAMKAVEVGEGETLVDLPVTDEWGTGVYVTATLLRPMDVAAGRNPTRALGLAHAAIDPGEKRLGATIETAAEAAPRGPMEIAVKVEGTAPGETVHATIAAVDVGILNLTGF”, which “soluble on expression in E. coli” value is on record?
Answer: Its value is “not soluble”.

Question: With “RKRYYNTIEDMKGKIRVYCRIRPLNEKESSEREKQMLTTVDEFTVEHPWKDDKRKQHIYDRVFDMRASQDDIFEDTKYLVQSAVDGYNVCIFAYGQTGSGKTFTIYGHESNPGLTPRATKELFNILKRDSKRFSFSLKAYMVELYQDTLVDLLLPKSARRLKLEIKKDSKGMVFVENVTTIPISTLEELRMILERGSERRHVSGTNMNEESSRSHLILSVVIESIDLQTQSAARGKLSFVDLAGSERVKKSGSAGNQLKEAQSINKSLSALGDVIGALSSGNQHIPYRNHKLTMLMSDSLGGNAKTLMFVNVSPAESNLDETYNSLLYASRVRTIVNDPSKHISSKEMVRLKKLVAYWKEQAGKKGEEEDLVDIEEDRTRKDEADS” as the sequence, how does the “soluble on expression in E. coli” value read?
Answer: Its value is “soluble”.

Question: With “MIDMTMKVGFIGLGIMGKPMSKNLLKAGYSLVVADRNPEAIADVIAAGAETASTAKAIAEQCDVIITMLPNSPHVKEVALGENGIIEGAKPGTVLIDMSSIAPLASREISEALKAKGIDMLDAPVSGGEPKAIDGTLSVMVGGDKAIFDKYYDLMKAMAGSVVHTGEIGAGNVTKLANQVIVALNIAAMSEALTLATKAGVNPDLVYQAIRGGLAGSTVLDAKAPMVMDRNFKPGFRIDLHIKDLANALDTSHGVGAQLPLTAAVMEMMQALRADGLGTADHSALACYYEKLAKVEVTR” as the sequence, how does the “soluble on expression in E. coli” value read?
Answer: Its value is “not soluble”.

Question: With “MSSKSTKRAKIEDPKDNVFMVEKVLDKRTGKAGRDEFLIQWQGFPESDSSWEPRENLQCVEMLDEFEREFSKREKPIRKRHSQKPEPSEDQADPEEDKDEKKETNQNDKFSLEGKQLKCIVGLTKGPGELHFLCKFSDDTARLLPAKEVNSRYPSQVIRYYESKLTIQDPKADEL” as the sequence, how does the “soluble on expression in E. coli” value read?
Answer: Its value is “not soluble”.
